Measurements published in patent US20210309739A1 (CISCIO BIOASSAYS, published 2021).
Read-outs that look alike come from different tables or passages of the source.

How the values were obtained:
[1] = molecular target: T1, recombinant TST-Galphai1 protein bound to GTPgammaS (human, UniProt P63096 1-354, Loaded non-covalently with GTPgammaS (10 uM). The N-terminal TwinStreptag and TEV linker are not in the letters.); experiment: TR-FRET (HTRF) saturation binding; VH-d2 titrated on 1 nM TST-Galphai1 with 10 uM GTPgS, anti-TST-Lumi4-Tb donor; mean Kd
T1 construct: Same polypeptide as m15 and m16; here loaded with an excess of GTPgS (10 uM); Produced in Sf9 insect cells; also called Galphai1 protein loaded with GTPgS
T1 sequence (P63096 whole entry): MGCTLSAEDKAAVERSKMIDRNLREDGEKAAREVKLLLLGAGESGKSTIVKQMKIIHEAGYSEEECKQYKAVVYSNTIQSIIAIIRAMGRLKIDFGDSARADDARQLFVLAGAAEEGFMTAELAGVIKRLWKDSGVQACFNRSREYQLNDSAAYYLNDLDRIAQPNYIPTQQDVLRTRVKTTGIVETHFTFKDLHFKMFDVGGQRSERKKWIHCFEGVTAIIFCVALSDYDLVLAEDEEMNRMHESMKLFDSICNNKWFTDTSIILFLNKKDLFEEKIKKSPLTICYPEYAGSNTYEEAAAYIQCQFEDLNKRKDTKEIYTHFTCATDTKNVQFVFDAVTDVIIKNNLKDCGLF
Procedure: (§1) The TR-FRET (HTRF) test made it possible to determine the affinity (Kd) of the various antibodies for the Galphai1 protein; FIG. 2 illustrates the principle of this test. A fixed concentration (1 nM) of the recombinant Galphai1 protein purified and tagged with TST (TST-Galphai1 protein) was placed in the presence of an excess of nucleotide (GDP or GTPgS) (10 μM), of a fixed concentration (0.5 nM) of anti-TST antibody labeled with the donor Lumi4®-Tb (anti-TST antibody-Lumi4®-Tb) and of increasing concentrations of VH-type single-domain antibodies labeled with the acceptor d2 (anti-Galphai VH antibody-d2). The total HTRF signal was then obtained.
(§2) The specific HTRF signal of the interaction between the antibody and the Galphai1 protein was then calculated by subtracting the nonspecific signal from the total signal. The data of the specific HTRF signal were then analyzed on GraphPad Prism7 software using a “one site specific binding” fit. The dissociation constant (Kd) of the antibody for the Galphai1 protein was then determined. The results which were obtained with the antibodies which bind to the G protein alpha bound to GTP gamma S and with the antibodies which bind to the G protein alpha bound to GDP are shown in Tables 1 and 2 below.

[2] = molecular target: T2, empty G alphai1 protein (recombinant TST-Galphai1 protein, no nucleotide) (human, UniProt P63096 1-354); experiment: TR-FRET (HTRF) saturation binding; VH-d2 titrated on TST-Galphai1, empty form; mean Kd
T2 construct: Same polypeptide as m14 and m15; also called empty G protein alpha; empty form of the G protein alpha; not shown: N-terminal TwinStreptag (TST) (IBA) tag and TEV linker
T2 sequence (P63096 whole entry): as above

[3] = molecular target: T3, recombinant TST-Galphai1 protein bound to GDP (human, UniProt P63096 1-354, Loaded non-covalently with GDP (10 uM). The N-terminal TwinStreptag and TEV linker are not in the letters.); experiment: TR-FRET (HTRF) saturation binding; VH-d2 titrated on 1 nM TST-Galphai1 with 10 uM GDP, anti-TST-Lumi4-Tb donor; mean Kd
T3 construct: Same polypeptide as m14 and m16; here loaded with an excess of GDP (10 uM); Produced in Sf9 insect cells; also called Galphai1 protein loaded with GDP
T3 sequence (P63096 whole entry): as above
Procedure: as §1, §2

[4] = molecular target: T2, empty G alphai1 protein (recombinant …); experiment: TR-FRET (HTRF) saturation binding; VH-d2 titrated on TST-Galphai1, empty form; mean Kd; remark: listed apart in the source
[5] = molecular target: T1, recombinant TST-Galphai1 protein bound …; experiment: TR-FRET (HTRF) saturation binding; 6HIS-tagged VH-HcAb titrated on 1 nM TST-Galphai1 with 10 uM GTPgS, anti-TST-Lumi4-Tb donor and anti-6HIS-d2 acceptor; mean Kd
Procedure: (§3) FIG. 12 illustrates the principle of the TR-FRET (HTRF) assay which was carried out to determine the affinity (Kd) of the various VH-HcAbs for the Galphai1 protein. A fixed concentration (1 nM) of the recombinant Galphai1 protein purified and tagged with TST (TST-Galphai1 protein) is placed in the presence of an excess of nucleotide (GDP or GTPgS) (10 μM), of a fixed concentration (0.5 nM) of anti-TST antibody labeled with the donor Lumi4®-Tb (anti-Tag Ab-Donor), of a fixed concentration (50 nM) of anti-6HIS antibody labeled with the acceptor d2 (anti-6HIS-acceptor antibody, Cisbio Bioassays #61HISDLF), and of increasing concentrations of a VH-HcAb antibody tagged with 6HIS (6HIS-Fc-sdAb). The total HTRF signal was then obtained.
(§4) The specific HTRF signal of the interaction between the VH-HcAb and the Galphai1 protein was then calculated by subtracting the nonspecific signal from the total signal. The data of the specific HTRF signal were then analyzed on GraphPad Prism7 software using a “one site specific binding” fit. The dissociation constant (Kd) of the VH-HcAb for the Galphai1 protein was then determined.

[6] = molecular target: T3, recombinant TST-Galphai1 protein bound …; experiment: TR-FRET (HTRF) saturation binding; 6HIS-tagged VH-HcAb titrated on 1 nM TST-Galphai1 with 10 uM GDP, anti-TST-Lumi4-Tb donor and anti-6HIS-d2 acceptor; mean Kd
Procedure: as §3, §4

B1: VH F4 (VHH)
VHH: EVQLVESGGGLVQPGGSLRLSCAASGFTFSSYYMNWVRQAPGKGLEWVSSIYNGDGDTDYSDSVKGRFTISRDNAKNTVYLEMSDLKVQDTAIYYCNAYDGTLLRDYWGQGTQVTVSS
modifications: labeled with the acceptor fluorescent probe d2 (site not stated)
notes: Made in E. coli; also called anti-Galphai VH antibody-d2
[1]
  Kd: 0.031 µM
[2]
  Kd: 0.083 µM

B2: VH F2 (VHH)
VHH: EVQLVESGGGLVQPGGSLRLSCAASGFTFSSYAMSWVRQAAGKGPEWVASISSRGITTDYAHSVKGRFTVSRDNTKNTLYLQMNSLKPEDTALYYCVKGWMPTGWGQGTQVTVSS
modifications: labeled with the acceptor fluorescent probe d2 (site not stated)
notes: as for B1
[3]
  Kd: 0.014 µM
[4]
  Kd: 0.001 µM

B3: VH B11 (VHH)
VHH: EVQLVESGGGLVQPGGSLRLSCAASGFTFNDYWMYWVRQAPGKGLEWVSSINTGGSSTYYSDSVKGRFTTARDNAKNSLYLQLNSLRPEDTAVYYCAKEGPVGPPDYWGQGTQVTVSS
modifications: labeled with the acceptor fluorescent probe d2 (site not stated)
notes: as for B1
[1]
  Kd: 0.001 µM
[2]
  Kd: 0.017 µM

B4: HcAb-F9 (Fc fusion)
heavy (part 1 of 2): EVQLVESGGGLVQPGGSLRLSCAASGFTFDDYAMNWVRQAAGKGPEWVASISSRGITTDYAHSVKGRFTVSRDNTKNTLYLQMNSLKPDDAAVYYCATDPSTWYRGTAHWGQGTQVTVSSAAAEQKLISEEDLNGAAHHHHHHGS
heavy (part 2 of 2): HHHHHH
notes: also called VH-HcAb F9; 6HIS-Fc-sdAb; not shown: CH2 and CH3 domains of a human IgG1
[5]
  Kd: 0.003 µM

B5: HcAb-B11 (Fc fusion)
heavy (part 1 of 2): EVQLVESGGGLVQPGGSLRLSCAASGFTFNDYWMYWVRQAPGKGLEWVSSINTGGSSTYYSDSVKGRFTTARDNAKNSLYLQLNSLRPEDTAVYYCAKEGPVGPPDYWGQGTQVTVSSAAAEQKLISEEDLNGAAHHHHHHGS
heavy (part 2 of 2): HHHHHH
notes: also called VH-HcAb B11; 6HIS-Fc-sdAb; not shown: CH2 and CH3 domains of a human IgG1
[5]
  Kd: 0.001 µM

B6: VH F9 (VHH)
VHH: EVQLVESGGGLVQPGGSLRLSCAASGFTFDDYAMNWVRQAAGKGPEWVASISSRGITTDYAHSVKGRFTVSRDNTKNTLYLQMNSLKPDDAAVYYCATDPSTWYRGTAHWGQGTQVTVSS
modifications: labeled with the acceptor fluorescent probe d2 (site not stated)
notes: as for B1
[1]
  Kd: 0.032 µM

B7: VH G6 (VHH)
VHH: EVQLVESGGDLVQPGGSLRLSCAASGFTFSTYRMNWVRQAPGKGLEWVASISSRGITTDYAHPVKGRFTVSRDNTKNTLYLQMNSLKPDDAAVYYCATDPSTWYRGTAHWGQGTQVTVSS
modifications: labeled with the acceptor fluorescent probe d2 (site not stated)
notes: as for B1
[1]
  Kd: 0.095 µM

B8: VH A10 (VHH)
VHH: EVQLVESGGGLVQPGGSLRLSCAASGLTYSDYAMSWVRQAAGKGPEWVASISSRGITTDYAHSVKGRFTVSRDNTKNTLYLQMNSLEPEDTAVYYCTTVSYWRYEYWGQGTQVTVSS
modifications: labeled with the acceptor fluorescent probe d2 (site not stated)
notes: as for B1
[3]
  Kd: 0.015 µM
[4]
  Kd: 0.001 µM

B9: VH G7 (VHH)
VHH: QVQLQESGGGLVQPGGSLRLSCAASGFTFSWYGMSWVRQAPGKGPEWVASISSRGITTDYAHSVKGRFTVSRDNTKNTLYLQMNSLKPEDTGVYYCTRVLWYDSGAYSLNDFWGQGTQVTVSS
modifications: labeled with the acceptor fluorescent probe d2 (site not stated)
notes: as for B1
[3]
  Kd: 0.031 µM
[4]
  Kd: 0.005 µM

B10: HcAb-G7 (Fc fusion)
heavy (part 1 of 2): QVQLQESGGGLVQPGGSLRLSCAASGFTFSWYGMSWVRQAPGKGPEWVASISSRGITTDYAHSVKGRFTVSRDNTKNTLYLQMNSLKPEDTGVYYCTRVLWYDSGAYSLNDFWGQGTQVTVSSAAAEQKLISEEDLNGAAHHHHHHGS
heavy (part 2 of 2): HHHHHH
notes: VH-type heavy-chain antibody: VH fused to CH2 and CH3 of human IgG1, then a 6-histidine tag; made in HEK293; Detected in the assay through an anti-6HIS antibody labeled with d2; also called VH-HcAb G7; 6HIS-Fc-sdAb; not shown: CH2 and CH3 domains of a human IgG1
[6]
  Kd: 0.005 µM

B11: VH E2 (VHH)
VHH: EVQLVESGGGLVQPGGSLRLSCIGSGYTFSSYAMAWVRQASGKGPEWVASISSRGITTDYAHSVKGRFTISRDNAKNTLYLHMNNLKPEDTALYYCTRVLWYENGLYSLNDFWGQGTQVTVSS
modifications: labeled with the acceptor fluorescent probe d2 (site not stated)
notes: as for B1
[3]
  Kd: 0.072 µM
[4]
  Kd: 0.002 µM
